{"source": "paper PMC2818353", "target": "YAP (WW1+WW2) protein fragment, recombinant 104-amino acid polypeptide", "assay": "ITC"}
{"substance": "Smad1 peptide extended to include S206 and S214 (unphosphorylated) and the PY motif", "values": [{"measurement": "fold increase of the interaction over the Smad1 peptide with only the PY motif", "result": 2.5, "unit": "fold"}]}
